# Assay results reported in the domain aggregation screens of Martell et al. (2025).
# Test: soluble fraction after stress (log2 fold change); higher = more stays soluble; pooled small domains, quantitative proteomics
# Details: stress: 50 degC
# Summary of the method: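 The measure of aggregation propensity here is the base-two logarithm of the fold change in the soluble amount of each protein after stress. A higher value means more of that protein stays in solution. Stress was applied at 50°C to pooled libraries of small protein domains, read out by high-throughput quantitative proteomics.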
row,Sequence,soluble fraction (log2)
1,HMDGYVPAERIASEVGVSARTITREMHGLEMTLMPYGIALLRRTGAGFMLAGTAKALADLRKHMTEDADTQ,-0.00161
2,HMETVVTEVKTTDVVNIRTSDSETADKLSKAAIGDTFPLLEERGNGWSKVAYNGEEAFIKSDYLEPSKTE,0.42
3,HMSSIDLTARSGRAALKHRLSLLGYEFSKIELETLYVRFIELADEKKLLHDEDLIELVKEKN,-1.37
4,HMSLYGGYEIDIIKEEVVDAGIKLLRRRVIVADQRGISVYEGKPTFASDDQVLIKEGQYQIDKLG,-2.63
5,HMDLGTHMRLIVPTGMRVDHIVYESNGKNISVDHDRSISVRWNGEVVSIDVSPLPSRPDFDVLIYMSPK,-0.0114
6,HMIPDPPALGSNLHRERRRQQLSLDALAAASGVSKAMLSQIEADKVNPTIATMWKIAHALNIDFETLLRGE,-0.283
7,HMGVMNEYEELRDRYLTGQIWKIGDLVEAKGIEGKIIQRGTNYITFNDSQGKVHKAWLHEIKV,0.184
8,HMRKIVEGVLTKKEGKWYLLTDIETYKISDASAEYHKAELNDRASALIPAQNPKVPFASLEKVFN,-0.219
9,HMIADSSSIHQDAKQQLHSYLRTNIQPLMRAGKQLDLKDILHHVTIRKPKLVQQLGMKQVQHMVQVLLD,0.224
10,HMDEFQLTPREQEILGLLVKGYTYKRIASELNLSYATVNRHVSNVYVKLRVHSVNEAVALAVRKGL,-0.997
11,HMSEDTYNTLTKGTRVYNGVDYGAKYGYNPLYYFLNYNDLRIAYGADPAKLVEHYALFGIKENRVANRQIT,-0.098
12,HMDIDNDIIENILVMGVTKAIAINLSNEFERHRIIANIEYAKEKSKNSEIKNISAFTVEAIRQDYANS,-1.1
13,HMQVSDEGPIKAILQEVLDKSPTQLADYASGKVKLRQYFFGEAMKALKGKANPQVINKLLDEMLPPVAA,0.079
14,HMNKKEIISVLEKIIPPSQIKNINIFGSELVIDLNIDNPSLHAKKKLEKSIMSSFDENLKIIVNFSVE,-0.00924
15,HMASMNPVWLEFPNIPWGSAGWRMGWGEDYMRRWAKWYISLAEVERQSYKSDWPEPQEWEGFYAFMEHGT,-1.63
16,HMADRVFGHIPGVAVGSIFPDRRSLSQTGVHRPTQAGISGNKTDGADSIVVSGGYRDDRDYGDLIIYTG,-0.000463
17,HMAVDPSVLTRRERQALAWIARGLSNKEVARGLNLAESTVKVHVQSILRKLNLTSRVQAAVYAIEHGIDK,-2.79
18,HMGNEVMYRQDLSEQELLSFIKKYTGQDEVTHIVVGAPKQRDNTPSPVETKITPFVVQLKAQFPDVNVV,0.115
19,HMEELIEMNGVVMEILPDSRYRVTLDNGHKLIAYTGGKMKKNHIRILAGDKVTLELSPYDINNGRITFRHI,-1.28
20,HMTTVSINTTGIITASTIRASSALYPPLYTTVQRDAGTFSAGAIIFNSTTSKLEFYDGTTWQSLPG,-0.106
21,HMAVFRVGDKVKSMEGMIGEVRGINGRLIQVATPYGLRDYYPHQITKVENPLAAAPAPLNEEA,0.269
22,HMGPVALGVTDGATYFSSVTITFRRGTAVLDGEPIASGHTVYKSGAHSLTLTAGGKTRTIAFTMDT,-4.23
23,HMIEKVNDYVVRFANVNGTGSASANNLFALAIYRMGVPVTPKNIFPSNIQGLPTWFEVRVSGSGYLARRG,0.01
24,HMPDIFDRGTAHITDAASGVAITFTRTFRIPPEVTMTHKGGTVVAIARLVGSITTGGFTAVLENT,-0.264
25,HMFRPRIEPGAKGSYVLEVQKRLAKLGYEHAGFDGVYGPGTERAIMQLQRDKGLPVTGIVDMRTYEALGLF,-0.46

row,Sequence,soluble fraction (log2)
1,HMGVRPAALGFQKVRIEPQVGTFREASGDVITPRGLIHAEWKRDEENALHLHYTLPDGVAYA,-0.0327
2,HMHKAVVGPPNARKLAVTYGFKRWPALVFFRDGKYLGAVDGLRLWADLVREADEIMHSEPHYP,-0.166
3,HMDSLIEYENERSLRRLINENLSDYERTVWWLYYAGADAAHIAEQTGRSKRSAENAITRVRRKLRALITQS,-1.08
4,HMAMSDFDALSNRISTLSQGRASAVRMKDGIVSLVLDIGGLSAEERKAMTAAIEGEGRGYPSVTQVRILET,0.0462
5,HMNRIFQERVVPAELDTLRADKVAASLFSDFSRNELAHWIKMGDLSINGGVKKAKDKLFEGDVLILDVEIV,-0.798
6,HMQTLGADLRALRKARGLTLTDMAETLGRSVGWLSQVERDLSEPSITDLRHMARTLGVSVSMLFS,-1.41
7,HMEVDDEAIYQGHEPSIRLHRLLKDVGYNSALLPSVVTQIFKDFPGIELAKALPIAMQLLNED,-0.403
8,HMNAKNPRALAIQYVFKMQMGNFLHAKTDNQQQEQERIMTLFNEENKNTILPRWGKELLSYINRN,-0.695
9,HMKITTKNYFKAIAEVGVENLPAALKKSHDLIEERTSKGADWSVYEHDAEVRRVFDLTFEKLFEFIDQ,-0.363
10,HMRQLISIYNNTIGADEIDQMRNILSNSGYKEGVDFAVQTADKKSVILVRRDLAGMIQEQLSGEGLPS,0.0201
11,HMDLSYPFTTVTTDNVNMRRSASSSSVVLERIDKGDSITVLGTSGNYYKVSYNDRTGYVLKQYVDVSAATT,-0.173
12,HMGDPVRVDKFLHDMNVGTRSQIRKLIKEKAVFVNDVVAKSGRVKVDPVVDQVRLGEQVITYQ,-0.115
13,HMATTMSADWRPSEDAVGILVNAEINARFIEDAIPEFVLYWRERGAVHGAWNSKFIEHIRRQWAKFSAS,-2.2
14,HMANKTVPNVSGKTVAEARAIIENQSLQVGEEKEEYSDSVAEGYIIRTNPTAGSQKKEQSKIDLVVSKG,0.203
15,HMRPTHYSGPSVIAMINNRVWFSDGSRLAPGEHHDDLEVVGLSPPWSAKVRWQGVEFDVGLFE,-1.45
16,HMGFDTVVEKVLGLITSRPMTSRDIQMTLGRSREHTSRLMNRLYKEGLVDRNTSSKPFSYIITEKGREKI,-0.0114
17,HMEFLDQAFLHETMRKVNQDATINLLKKVYEVPQKFIGRKVTVQYDPEDLSRVYVKDLSFPEPVTVYPV,-0.0595
18,HMPVGSIGERLKALRLKAGLTQEEVGQHVHISKQTLYKYENGIVTNIPADKIELLATIYSVTPAYIMGWA,-0.875
19,HMRIFDDNMIFPTEAEISAALKRLVMDLPKVGFLQGHGERAVDNVGERAYSMFTHANNFRYALINQGFVT,-0.176
20,HMARAVSPLEAIPGVGPRRRQQLLKQLGGMQEVARAGVEDLSRVPGISRALAQQIYDAFHGD,-0.149
21,HMEVMYFIYQQEEPMRIDKFLVNEMEDFSRNSIQIYIKDNHVLVNDKVVKANYILKKGDAISITIPDPI,-0.404
22,HMNTPTLLLYGGKDHSVPEAGIRHLRAHLSANDRGEYRFYPNAPHLLLQSRQWQQVSQDISQWLAMT,0.141
23,HMLQQKESAALGERLLNQALATLKVEPDAISWDRWEALAKEYGAKSQLDILADIGLGKRLSFVVAQALTKV,-0.535
24,HMANSREIPKLAGIEQEEAVKQLLDLDLKPVIEEITDDDTDAGDVVRTDPAAGEHVAVDTEITVFISIG,-0.421
25,HMSDPVKQVAMRILDLREISDYTVDKMAEVLNVPVEEYRKYESGEVDMPISFLVKIGEVFHVDMTELLTG,-0.219

row,Sequence,soluble fraction (log2)
1,HMKEPGFAPPVRALAAAPITVLAQVAGTNPGEIRARLRAAGYPVASDQQSVQSLVGGDLKAQIGVLNRILA,-0.00802
2,HMTEEEEFEKGFEILVNLSHFNRFSVYKEDEYVIVRIADYDFNEYFKVKKSDVGRIAEFLNENIT,-2.4
3,HMKNNAIAPDQVVSLLKNEVNYNDDGRIEILDNNKNIRYNSKGELLTIEERVNEFLDANPHFRK,-0.119
4,HMDRSLYVGDAVGFDSARGLMEIEVKNKFSVVAVSLKKKPSGNFITPLLRMEKKKGEAVTVAPGSGHR,-0.33
5,HMSITKDNLSIGTNIRISGFSDIGRIISIPNKGNQVQVQIGSAKMNIKINSIVEIIKEEKDFNKNISN,-0.102
6,HMINDPSALGQRAFVDELLWMAGYVPEKIEIYQTLPNNSRVYRVKLDSVNGGFIFIRWDKKKKEHYV,0.114
7,HMADAGQTTAATELKQAPNAGSATISQLSAGQTLQIGTRQGAWYQVKTPQGEGWVRMLSVRLQ,0.0186
8,HMFPQVEVQLIYSYKSDRILNKMLKEFNVVILNQVFKDDILTSFHMNYSLVNQLITKIKSYPDISYKIIN,-1.5
9,HMVSGSPTVDILMQRGLEYQQQENLEAARDAFDRAINLKPDYAEAWNRRAVLFFNEGKYDEAIADLETAIT,0.077
10,HMPYHSEAWHKVMKSHWLTLSREEAYMHEGRTGASTINIVFQRELGREATQEEIESIYQEKSVLFNSYP,-1.46
11,HMGNASQAARRQRIVDAALELLQDRPYDQIQMRDVAEGAGVALGTLYRYFPSKEQLFAHVLVE,0.027
12,HMKFNEKQNEVRIAIMNFIIDNKRPFHMKQDGYDALEGITLSGRHEFQDILDVLHSRDGFSADEEGNINF,-1.51
13,HMGPKALLKIPGLQEVDAELLFKEGYKSISAVASADPEMLKAIPGVDEQKVTEWVTGAEQILSQQVNKGA,0.342
14,HMSESEDFQNRWRPWRSLLDDETPVVREALVDQLKLFPEEGRLFLQQMSEEDDPISARHAFELIKSLGW,-0.132
15,HMATEYIIPTVTNKKLEEAIGIAQLRGFEISVDEYKPSDIDEGTVLEQSPAAGTNAKQGDTISVTVSSG,0.294
16,HMIDSVFASYRQVALDDELWDKVRNGAVLPKVELFEVMDGPVLFTYQSKIVAMYEPHPTKAGYIKPRKMFL,-1.18
17,HMDTNVKLLSPKQADFFASKLANNQNFSSKFAKVGEDMQPFIERISSELQQDISQVIVYMPYLLESGFKQ,0.0782
18,HMEGIWAVFYDGKPINLKSSSLVANYPGPKYKKVSFSNPGHAENLAKKLNAQHNTDKFGVYLLKSGDKFS,-0.00158
19,HMGSNLSFDLSQIIASRYQEKAAELGLTAPSLARTDLSPQEQATAEVVARAIIADYYDQRVAPFNDLIPQ,-0.394
20,HMTETSKLTDAKQLLESILSSGEVSYKDIISAAEEYEIGKRTLMSAKALLSIESIKKTDGWYWTLPH,-0.213
21,HMSTMKSKWFVSSNPIAGVMKYQAQRKKDVNAVDSSENREASGQWYTDKEEAQAIVDKLNAEEQIKEAGK,0.159
22,HMSHGYVEMQAKDDQVLLAALKNHPWFEKVSIDEETGLTKAILTQPIEAEELNSMLFEKGIVLSHLVKRK,0.234
23,HMDAMLGEALRLIRVYHDLKQKQAAERLEVSTSYLSEIERGLKTPTLDIIQRYATVFDMPVSSIMFFSENL,-3.03
24,HMQQEAVNLVQSRGQQAIEPVHIMQGVMKVGENVTNFIFQKLGMNGQQVALVVDKQIDSLPKVSGGEPYL,0.0273
25,HMSRMLTVKQREVFDLAMREGYWETPRRITLTMLASLLSVSKSTLSVQLHKIEGTVLSSFSDEVRRRS,-1.49
